Where no end group is shown, it is not given here. [ ]: non-standard residue; d: D form. Gly(cPent) = N[C@H](C(=O)O)C1CCCC1
Target: T1, HLA-A2 (Homo sapiens, UniProt P04439, D140Y/D185E/D98H/E176V/E277Q/G131W/G231S/I119V/I121R/I166T/I218V/L300P/N151K/N90K/P208A/P217A/Q86G/Q94H/R138H/R169H)
T1 construct: Soluble Class I/Plate-Based Assays; purchased Beckman Coulter
Test: iTopia plate-based assay: stability (half-life) of peptide/HLA-A2 complexes
Format: binding
Conditions: for stability of complex with HLA-A2 compared with the corresponding native survivin peptide: Survivin peptide derivatives
Description: II. Soluble Class I/Plate-Based Assays The plate-based assay, named iTopia™, is a commercial assay (Beckman Coulter). The assay is performed in wells of microtiter plates. At the outset of the assay, MHCI complexes (properly folded MI-IC heavy chain, beta 2 microglobulin and a place-holder peptide), are tethered to streptavidin-coated microplate wells. (Proper formation/folding of the MHC complex may be determined by binding of an anti-HLA-ABC antibody). A buffer designed to unfold and dissociate the complex was added to each test well, allowed to incubate, and the place holder peptide and beta 2 microglobulin were washed away. Escalating concentrations of the test peptide, along with additional beta 2 microglobulin, were added to each well and incubated in a buffer designed to promote refolding of complexes. Plates were incubated overnight at 21° C. Properly folded MHCI complex molecules were detected with a fluorescently labeled antibody selected based on its ability to only bind properly folded MHCI complexes. Binding was reported relative to a standardized positive control peptide. Relative affinities were reported as ED50, and are defined herein as the concentration of peptide required to achieve half maximal binding of the positive control. […] Assessment of Peptide/HLA-A0201 Complex Stability. MHCI complexes were dissociated in each test well using stripping buffer, and the place-holder peptide and beta 2 microglobulin were washed away. 100 uM of the test peptide was added to appropriate wells along with additional beta 2 microglobulin and the anti-HLA ABC antibody, and the plates were incubated overnight at 21° C. Plates were washed, and fresh buffer was added to each well. Plates were shifted to 37° C., and the appropriate wells were read at 0, 0.5, 1, 1.5, 2, 4, 6 and 8 hours.

Substance	stability of complex with HLA-A2 compared with the corresponding native survivin peptide	increase in the half life of the HLA-A2 peptide complex compared to the native survivin peptide (Survivin peptide derivative vs native survivin peptide)
I-[cpg]-TFKNWPF (I[Gly(cPent)]TFKNWPF)	more stable complex	–
K-[cpg]-RRAIEQL (K[Gly(cPent)]RRAIEQL)	more stable complex	greater than 20 fold
